From the supplement of paper PMC10724198
± gives the standard deviation of the averaged measurements.

Tested on: Saccharomyces cerevisiae
Assay: protein stability index of tFT-peptide fusion (C-terminal peptide) (PSI (0-1 scale)); higher = more stable (slower turnover)
Settings: genetic background: wild type; temperature: 30 C
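Further: PSI is a weighted mean of sequencing reads over stability bins, variants kept only with over 10 reads, mCherry proximal and sfGFP distal, peptide attached via GGGS linker.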

Sequence	protein stability index
LTSGTVLVLSSL	0.683 ± 0.03
LTSPPPPPARVP	0.739 ± 0.11
LTSRPIPFLLRG	0.666 ± 0.014
LTSWAKRMGLGD	0.731 ± 0.1
LTWCGVSEAVIA	0.50795 ± 0.00033
LTYVSGIASVYG	0.532 ± 0.019
LVALTSVLSALF	0.698 ± 0.069
LVCGIDSLVRLV	0.57 ± 0.029
LVCGIGFIYFGF	0.492 ± 0.014
LVCLWQGSSVLI	0.671 ± 0.023
LVCRRYSGDSSS	0.637 ± 0.023
LVDSSLTESLDV	0.645 ± 0.034
LVFCSLLSLFFS	0.557 ± 0.012
LVGSLGVYGVYV	0.665 ± 0.043
LVICPRVLRDFR	0.663 ± 0.05
LVILLLQLLSGT	0.51758 ± 0.00046
LVLFFRSYCLVV	0.5142 ± 0.0036
LVLKLWNKFFVD	0.65438 ± 0.00026
LVLPASSPCLFF	0.647 ± 0.034
LVLSRSGPFSHL	0.7 ± 0.073
LVLTLIDGSWNV	0.7011 ± 0.0056
LVLVSFWWSGPM	0.526 ± 0.031
LVPPPPPPSPPP	0.6457 ± 0.004
LVRASDPLSVTI	0.689 ± 0.073
LVRILSRSVVRT	0.697 ± 0.078
LVRLNSHRYTSV	0.613 ± 0.035

Sequence	protein stability index
LVSCPPPPAPPP	0.659 ± 0.06
LVSPSSPLLPPP	0.685 ± 0.082
LVSRLAGAVLGR	0.632 ± 0.014
LVSVSVGFFLLL	0.499 ± 0.047
LVSWFWPFSFFA	0.661 ± 0.098
LVVEYFLCGSIS	0.532 ± 0.035
LVVWSSIVSGGG	0.675 ± 0.05
LVYLQVFSSLLS	0.543 ± 0.014
LWGGVVGRVRGV	0.635 ± 0.037
LWGVVVGELGSC	0.723 ± 0.074
LWISVDEGQLCH	0.617 ± 0.042
LWPVSMTSSFFF	0.661 ± 0.048
LWRFMLGQGFEG	0.726 ± 0.022
LWVGVGRWLRGR	0.744 ± 0.014
LYAHVPSYRVSA	0.593 ± 0.058
LYNVTRDTWVLS	0.66 ± 0.057
LYPSFSHTPPPT	0.69 ± 0.056
LYSPLLCRLPFP	0.666 ± 0.045
LYVLHCSLIEEV	0.543 ± 0.051
MAHAYTRKDTRK	0.64 ± 0.052
MAICRVLSQVFL	0.686 ± 0.12
MAIRSPACRLRF	0.674 ± 0.049
MAWGVGTRRLGW	0.679 ± 0.044
MCDSFFGHSVRN	0.699 ± 0.043
MCLWMGFWFACF	0.537 ± 0.024
MENAMHQLNRNT	0.679 ± 0.022

Sequence	protein stability index
MFDSHQWVCIKD	0.785 ± 0.1
MGGKGRGGRREI	0.666 ± 0.041
MGSQATPQRENS	0.659 ± 0.12
MGVGINSGDKLC	0.667 ± 0.11
MGVGRFEWVVGG	0.665 ± 0.053
MGVHKQQMRGQR	0.682 ± 0.036
MGYPGFGRVPYV	0.723 ± 0.053
MHLRFYFLKTDV	0.597 ± 0.02
MKIKIEINKNKT	0.654 ± 0.032
MKKVQENIKGKH	0.717 ± 0.11
MKRMIKREIKIK	0.679 ± 0.089
MKTSIQHNRNPG	0.659 ± 0.0096
MLFLGPRLVVPA	0.565 ± 0.0097
MLRRSGEGVRLE	0.7218 ± 0.0045
MLYNQDIGQELL	0.652 ± 0.058
MMFRRLPTRGRF	0.6951 ± 0.0021
MNQELRNCKGNG	0.6259 ± 0.0034
MNRHLHFLSPET	0.648 ± 0.031
MQGCKAYSVGRQ	0.701 ± 0.061
MQLTRKEEKSQE	0.658 ± 0.023
MSEFDVPLPIYM	0.716 ± 0.063
MTRGSAPELWLL	0.655 ± 0.029
MVCSFVSLLGRF	0.69 ± 0.01
MVGGVLLSGCRF	0.6455 ± 0.0021
MVVLSGVLPVGD	0.642 ± 0.0077
MWLGSGCWVNGL	0.735 ± 0.048

Sequence	protein stability index
MWQSRSAYFGSN	0.692 ± 0.075
MWYCGVSGPGNG	0.6859 ± 0.0013
MYHGKKTAGINV	0.7 ± 0.037
MYRLSFAAGRGS	0.688 ± 0.016
NAFTMWVSRQAR	0.77 ± 0.02
NALFGWMRGCLS	0.724 ± 0.034
NARMPPHIVAGI	0.64 ± 0.034
NASVRMFIRTGC	0.6971 ± 0.00097
NCMFKSNKQGGA	0.6749 ± 0.0021
NCPIQEPVSAIY	0.661 ± 0.007
NCTHKKKTLTPN	0.726 ± 0.012
NDGSDYRFLSLK	0.706 ± 0.011
NECKIKKDNTKK	0.672 ± 0.06
NEEVAKKKKIRV	0.667 ± 0.061
NEINKPTRSQTA	0.644 ± 0.04
NENFILCPRVNL	0.701 ± 0.035
NESSASKEKSNI	0.69 ± 0.038
NFQLIKKHSKNN	0.63552 ± 0.00029
NGGCCLVFRIEP	0.643 ± 0.029
NGQSELHDHYME	0.651 ± 0.013
NGSSFSRTVRFM	0.624 ± 0.038
NGVGGMHGINIM	0.696 ± 0.076
NHFQYHSPVASE	0.688 ± 0.028
NHLANHAGCQKT	0.667 ± 0.028
NHSTGLYAARLR	0.725 ± 0.041
NHVAPNSPSPQD	0.731 ± 0.027

Sequence	protein stability index
NIIQTYITLNEL	0.74 ± 0.12
NIMNKIFQKQKE	0.642 ± 0.092
NIPAAGCPRATA	0.711 ± 0.033
NKEPKRKHKNNK	0.675 ± 0.017
NKIKTSRKKNNQ	0.723 ± 0.017
NKILIKKEQEEI	0.64356 ± 0.00045
NKKKKTAIPPKR	0.672 ± 0.021
NKKKPKRTGKTQ	0.674 ± 0.025
NKKKREYKGMNF	0.686 ± 0.044
NKKVRSKRKEMN	0.637 ± 0.093
NKLKEKNEKYKV	0.659 ± 0.025
NKNKDNNEIVKK	0.677 ± 0.068
NKNVGLKKSEKS	0.711 ± 0.019
NKQNKKKKTNKK	0.6792 ± 0.0036
NKQTKTQPTKKE	0.725 ± 0.015
NKYTKSKKNNKE	0.761 ± 0.14
NLKCRMSLKTLG	0.705 ± 0.0018
NMCHVYTIIPSK	0.632 ± 0.024
NMPIGVRLLLGR	0.652 ± 0.011
NNMNRKKGKKKT	0.7027 ± 0.0018
NNRKKKGRRRQE	0.674 ± 0.042
NPAVASPPPSSS	0.737 ± 0.036
NPHLTLPVHPPH	0.709 ± 0.026
NPHRRPPRAPWP	0.689 ± 0.039
NRDGWWVSNGCR	0.796 ± 0.07
NRGYRKDDKGMR	0.689 ± 0.042

Sequence	protein stability index
NRHQVSKTEIKL	0.72 ± 0.016
NRMLRAQRKNRT	0.689 ± 0.033
NRNVLKTRKKST	0.593 ± 0.018
NSDEYKVYGEKL	0.661 ± 0.015
NSEKKKKRKEKK	0.731 ± 0.024
NSKTKNCYKTGS	0.705 ± 0.061
NSPPPPRLRSSL	0.6937 ± 0.0018
NSQAIKSTARQK	0.707 ± 0.00054
NSRLLPWRHELR	0.784 ± 0.1
NSWCRFLRRCLV	0.609 ± 0.074
NSWGRRAGMRGG	0.731 ± 0.1
NTIPRVTPDKSQ	0.642 ± 0.093
NTLTSCRPVASK	0.704 ± 0.037
NTQSRNKSYTER	0.671 ± 0.0091
NTRGRGQCCQGN	0.576 ± 0.053
NTSLLMAWPIPP	0.556 ± 0.032
NVCSSFLAELVN	0.6051 ± 0.0029
NVEFVVERIREK	0.6 ± 0.027
NVNMGSRGQFNF	0.628 ± 0.026
NVRVLKCLWGVG	0.619 ± 0.029
NVTCRPDKNELT	0.643 ± 0.035
NYDTIYGLHLYT	0.73 ± 0.015
NYSINQKNRKKN	0.737 ± 0.013
PAAPGLDLRHDP	0.623 ± 0.037
PAFGCTSRPFPG	0.711 ± 0.031
PAGILMQDSRRA	0.589 ± 0.051

Sequence	protein stability index
PAPLSPTHPPLP	0.71 ± 0.053
PAPPAALPPPHP	0.637 ± 0.077
PAPPHPPFPLLP	0.705 ± 0.018
PAPPLRVAPSRI	0.67 ± 0.014
PAPPPLLPPPPP	0.597 ± 0.016
PAPPPLPSSSPP	0.696 ± 0.0019
PAPPPPLPLHPR	0.664 ± 0.046
PAPPPPRRPLPP	0.657 ± 0.0086
PAPPPRPLPSPP	0.713 ± 0.2
PAPPPSPRILLL	0.542 ± 0.042
PAPPRYPLSSSS	0.633 ± 0.011
PAPRPPSPLSAP	0.687 ± 0.039
PAPSYHPVSPTA	0.713 ± 0.0096
PAPTRPSPPPLP	0.641 ± 0.013
PASPPSPLLLSL	0.74 ± 0.066
PAVFPSLENVAL	0.732 ± 0.046
PCINGSASRRSG	0.6189 ± 0.0058
PCLASHTVDSLP	0.665 ± 0.013
PCLLTNLPILPT	0.626 ± 0.077
PCLQQCLLIFLP	0.566 ± 0.015
PCMCKRNKQYRG	0.649 ± 0.016
PCPSVLPISLPH	0.713 ± 0.06
PCRPPSILAPHP	0.739 ± 0.0097
PCSVLVWGVLLP	0.622 ± 0.032
PCYCSAPRRSWA	0.749 ± 0.04
PDCLSLCFSLFP	0.664 ± 0.0071

Sequence	protein stability index
PDCVLSDENDAG	0.658 ± 0.0076
PDLGRQPGGSET	0.647 ± 0.052
PDYNEIIEYTEG	0.706 ± 0.033
PEEGQNASVRPC	0.694 ± 0.023
PERPPVARATRP	0.718 ± 0.049
PFFLVSPEPLSI	0.666 ± 0.058
PFFPSSFALLRS	0.7166 ± 0.0067
PFFPVALPFPHL	0.7 ± 0.021
PFFSSRLFTLSL	0.731 ± 0.015
PFLCCPRMSHFL	0.705 ± 0.013
PFLPSPPPPVPI	0.712 ± 0.045
PFPAFPPVTSPP	0.85 ± 0.054
PFPLPPPPFHPP	0.691 ± 0.014
PFPPPTDQTAHR	0.728 ± 0.025
PFPPTPSPAPPL	0.7097 ± 0.0025
PFRSFSPPPRAP	0.742 ± 0.17
PFRSPFSSSPTF	0.7772 ± 0.0077
PFSLTTLFSPLL	0.691 ± 0.031
PFSPLVPPLSFS	0.76 ± 0.086
PFSSFLSLFPIL	0.7 ± 0.0084
